Patent publication US20190023748A1 (NAVIGEN, published 2019)
Bridge positions count the residues as written; N and C are the ends. Square brackets hold non-standard residues; d marks the D form. Primed or numbered codes have the meaning given here. Side chains are listed from the residue outwards. PEG4″ = PEG chain having 4 ethylene glycol repeat units; 4‑arm scaffold = not defined here

Experiments:
Assay in all cases: cell-based or functional assay
[1] = target: T1, HIV-1 gp41 of strain HXB2 (HIV-1 strain HXB2, UniProt P04578 512-856)
[2] = target: HIV-1 gp41 of strain JRFL (HIV-1 strain JRFL)
[3] = target: T1, HIV-1 gp41 of strain HXB2; remark: listed apart in the source
[4] = target: HIV-1 gp41 of strain JRFL (HIV-1 strain JRFL); remark: listed apart in the source

B1: Palmitate-conjugated PIE12-trimer (peptide)
peptide: Ac-[dH][dP][dC][dD][dY][dP][dE][dW][dQ][dW][dL][dC][dE][dL]G[dK]([PEG4″-4‑arm scaffold])-NH2
modifications: disulfide 3-12 (inferred); reading uncertain; also: trimer: three PIE12 monomers on 4-arm scaffold, fourth arm PEG24 with D-cysteine bridge carrying palmitate
Antiviral potency, IC50, HXB2 pseudovirion entry assay [1]: 225 pM | Antiviral potency, IC50, JRFL pseudovirion entry assay [2]: 540 pM | fold increase in potency against unconjugated PIE12-trimer (HXB2) [3]: 3 to 4 fold | fold increase in potency against unconjugated PIE12-trimer (JRFL) [4]: 3 to 4 fold

B2: CPT24-5 kD (peptide)
peptide: Ac-[dH][dP][dC][dD][dY][dP][dE][dW][dQ][dW][dL][dC][dE][dL]G[dK]([PEG4″-4‑arm scaffold])-NH2
modifications: disulfide 3-12 (inferred); reading uncertain; also: PIE12 trimer on 4-arm scaffold, fourth arm 5 kDa linear polydisperse PEG with thiocholesterol
Antiviral potency, IC50, JRFL pseudovirion entry assay [2]: 26 pM

B3: 40 kD PEG-PEG24-PIE12 trimer (peptide)
peptide: Ac-[dH][dP][dC][dD][dY][dP][dE][dW][dQ][dW][dL][dC][dE][dL]GK-NH2
modifications: disulfide 3-12 (inferred); not fully specified (residue 16); also: trimer: three PIE12 monomers on 4-arm scaffold, fourth arm PEG24 carrying 40 kDa Y-branched PEG
Antiviral potency, IC50, HXB2 pseudovirion entry assay [1]: 9500 pM | Antiviral potency, IC50, JRFL pseudovirion entry assay [2]: 71000 pM | fold reduction of potency against unconjugated PIE12-trimer (HXB2) [3]: 13 fold | fold reduction of potency against unconjugated PIE12-trimer (JRFL) [4]: 34 fold
